The values below come from PMC3045619 (Nucleic Acids Research, 2010).

The target of assay [1] is χ subunit of DNA polymerase III of E. coli, wild-type (E. coli, UniProt P28905 1-147). As to the kind of experiment: cross-linking.
Another assay addresses χ K124A (E. coli, UniProt P28905 1-147, K124A). As to the kind of experiment: cross-linking.

With WMDFDDDIPF [SSB-Carb, peptide containing the last nine amino acids of EcoSSB], the binding result (in assay [1]; with χ K124A) was “binds” each time.
